Assay results published in US20180066070.

B1: Sirtuin (silent mating type information regulation 2 homolog) 1 (protein)
chain: MADEAALALQPGGSPSAAGADREAASSPAGEPLRKRPRRDGPGLERSPGEPGGAAPEREVPAAARGCPGAAAAALWREAEAEAAAAGGEQEAQATAAAGEGDNGPGLQGPSREPPLADNLYDEDDDDEGEEEEEAAAAAIGYRDNLLFGDEIITNGFHSCESDEEDRASHASSSDWTPRPRIGPYTFVQQHLMIGTDPRTILKDLLPETIPPPELDDMTLWQIVINILSEPPKRKKRKDINTIEDAVKLLQECKKIIVLTGAGVSVSCGIPDFRSRDGIYARLAVDFPDLPDPQAMFDIEYFRKDPRPFFKFAKEIYPGQFQPSLCHKFIALSDKEGKLLRNYTQNIDTLEQVAGIQRIIQCHGSFATASCLICKYKVDCEAVRGDIFNQVVPRCPRCPADEPLAIMKPEIVFFGENLPEQFHRAMKYDKDEVDLLIVIGSSLKVRPVALIPSSIPHEVPQILINREPLPHLHFDVELLGDCDVIINELCHRLGGEYAKLCCNPVKLSEITEKPPRTQKELAYLSELPPTPLHVSEDSSSPERTSPPDSSVIVTLLDQAAKSNDDLDVSESKGCMEEKPQEVQTSRNVESIAEQMENPDLKNVGSSTGEKNERTSVAGTVRKCWPNRVAKEQISRRLDGNQYLFLPPNRYIFHGAEVYSDSEDDVLSSSSCGSNSDSGTCQSPSLEEPMEDESEIEEFYNGLEDEPDVPERAGGAGFGTDGDDQEAINEAISVKQEVTDMNYPSNKS
For B1, the “increase in fluorescence caused by deacetylation of fluorogenic PCSK9 peptide” value (acetyl-PCSK9-AMC peptide) was “SIRT1 deacetylates fluorogenic PCSK9 peptide” and the “deacetylation in vitro (SDS-PAGE, blots for acetyl-lysine and PCSK9)” value (Recombinant PCSK9) was “PCSK9 is deacetylated by SIRT1 in vitro”.
